# Test results reported in article PMC11055865, “Mechanism of DNA unwinding by MCM8-9 in complex with HROB” (Nature Communications, 2023).
# B1: HROB-L405D (natural protein, human, UniProt Q8N3J3-4 1-646, looked up)
# chain: MACSLQKLFAVEEEFEDEDFLSAVEDAENRFTGSLPVNAGRLRPVSSRPQETVQAQSSRLLLLHPTAPSEALGLPDLDLCLPASSTPSADSRPSCIGAAPLRPVSTSSSWIGNQRRVTVTEVLREPARPQSSALHPLLTFESQQQQVGGFEGPEQDEFDKVLASMELEEPGMELECGVSSEAIPILPAQQREGSVLAKKARVVDLSGSCQKGPVPAIHKAGIMSAQDESLDPVIQCRTPRPPLRPGAVGHLPVPTALTVPTQQLHWEVCPQRSPVQALQPLQAARGTIQSSPQNRFPCQPFQSPSSWLSGKAHLPRPRTPNSSCSTPSRTSSGLFPRIPLQPQAPVSSIGSPVGTPKGPQGALQTPIVTNHLVQLVTAASRTPQQPTHPSTRAKTRRFPGPAGIDPHQQSGRSLEDIMVSAPQTPTHGALAKFQTEIVASSQASVEEDFGRGPWLTMKSTLGLDERDPSCFLCTYSIVMVLRKAALKQLPRNKVPNMAVMIKSLTRSTMDASVVFKDPTGEMQGTVHRLLLETCQNELKPGSVLLLKQIGVFSPSLRNHYLNVTPNNLVHIYSPDSGDGSFLKPSQPFPKDSGSFQHDVAAKPEEGFRTAQNLEAEASPEEELPEADDLDGLLSELPEDFFCGTSS
# notes: HROB, human; numbers count on: isoform 1 (Q8N3J3-1); not shown: FLAG, C-terminal, kept
# B2: MCM8-9 complex (FLAG-tagged MCM8 and MBP-tagged MCM9), wild type (complex)
# chain 1: MNGEYRGRGFGRGRFQSWKRGRGGGNFSGKWREREHRPDLSKTTGKRTSEQTPQFLLSTKTPQSMQSTLDRFIPYKGWKLYFSEVYSDSSPLIEKIQAFEKFFTRHIDLYDKDEIERKGSILVDFKELTEGGEVTNLIPDIATELRDAPEKTLACMGLAIHQVLTKDLERHAAELQAQEGLSNDGETMVNVPHIHARVYNYEPLTQLKNVRANYYGKYIALRGTVVRVSNIKPLCTKMAFLCAACGEIQSFPLPDGKYSLPTKCPVPVCRGRSFTALRSSPLTVTMDWQSIKIQELMSDDQREAGRIPRTIECELVHDLVDSCVPGDTVTITGIVKVSNAEEGSRNKNDKCMFLLYIEANSISNSKGQKTKSSEDGCKHGMLMEFSLKDLYAIQEIQAEENLFKLIVNSLCPVIFGHELVKAGLALALFGGSQKYADDKNRIPIRGDPHILVVGDPGLGKSQMLQAACNVAPRGVYVCGNTTTTSGLTVTLSKDSSSGDFALEAGALVLGDQGICGIDEFDKMGNQHQALLEAMEQQSISLAKAGVVCSLPARTSIIAAANPVGGHYNKAKTVSENLKMGSALLSRFDLVFILLDTPNEHHDHLLSEHVIAIRAGKQRTISSATVARMNSQDSNTSVLEVVSEKPLSERLKVVPGETIDPIPHQLLRKYIGYARQYVYPRLSTEAARVLQDFYLELRKQSQRLNSSPITTRQLESLIRLTEARARLELREEATKEDAEDIVEIMKYSMLGTYSDEFGNLDFERSQHGSGMSNRSTAKRFISALNNVAERTYNNIFQFHQLRQIAKELNIQVADFENFIGSLNDQGYLLKKGPKVYQLQTM
# chain 2: not shown
# notes: MCM8, human; vector pFB-FLAG-MCM8; MCM9, human; vector pFB-MBP-MCM9; Major species is a heterodimer; tetramers and hexamers are also present; also called MCM8-9 heterodimer; dimer-rich MCM8-9; source: MBP tag not cleaved; for the amylose pull-down captured from Sf9 lysate on amylose resin and washed; not shown: FLAG, N-terminal, kept; MBP, N-terminal, kept
# Experiments:
# [1] = biological target: B2; assay: pull-down; MBP-MCM9/FLAG-MCM8 (or pMCM8-9, with or without λ-phosphatase treatment on the resin) immobilized on amylose resin from Sf9 lysate and washed; 1 µg wild type or mutant HROB in 50 mM Tris-HCl pH 7.5, 3 mM EDTA, 100 mM NaCl, 1 h at 4 °C; maltose elution, western blotting; details: both partners purified
# [2] = biological target: the molecule itself; assay: mass photometry; protein alone in solution, no DNA; 50-200 nM final protein in 50 mM Tris-HCl pH 7.5, 100 mM NaCl; oligomeric state of MCM8-9 unchanged with ATP-γ-S
binding result [1],Binder,binding result [2]
binds,B1,–
–,B2,binds
